# Experimental data taken from patent US20030138946A1.
# T1: soluble H-2 K^b (K^bsol): heterodimer of truncated K^b heavy chain and murine β-2 microglobulin, purified from Drosophila cells (murine), P01901
# T1 chain 1: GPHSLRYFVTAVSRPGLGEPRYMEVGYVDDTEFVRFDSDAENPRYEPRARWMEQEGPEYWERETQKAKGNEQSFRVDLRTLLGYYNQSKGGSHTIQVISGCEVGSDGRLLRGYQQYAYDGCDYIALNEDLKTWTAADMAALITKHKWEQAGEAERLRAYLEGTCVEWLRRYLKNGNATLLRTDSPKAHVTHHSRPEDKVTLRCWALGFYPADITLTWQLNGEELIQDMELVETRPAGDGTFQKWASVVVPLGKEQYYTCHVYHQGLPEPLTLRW
# T1 chain 2: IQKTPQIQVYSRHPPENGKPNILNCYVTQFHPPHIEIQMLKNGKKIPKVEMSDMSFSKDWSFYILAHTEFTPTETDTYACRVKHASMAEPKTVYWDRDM
# Molecular target: T1, soluble H-2 K^b (K^bsol): heterodimer …
row,Binder,Kd [nM]
1,SIINFEKL (modifications not checked) [OVA-8 (ovalbumin 257-264)],4.1
2,LESIINFEKL (modifications not checked) [OVA-10N],280
3,SIINFEKLTE (modifications not checked) [OVA-10C],14
4,SIINFEKLT (modifications not checked) [OVA-9C],11
